Measured values: US20170247465A1, “COMBINATION THERAPY FOR TREATMENT OF CANCER” (OncoMed Pharmaceuticals, Inc., priority 2014, published 2017)

Tested on: OMP-LU77 lung tumor cells
Test: OMP-LU77 lung tumor xenograft, staggered dosing of vantictumab and paclitaxel (Example 6)
Assay type: in vivo, NOD/SCID mice
Details: vantictumab 25 mg/kg administered two days prior to paclitaxel 15 mg/kg, every other week; versus same day, paclitaxel alone; FIG. 4
Description: FIG. 4. Inhibition of lung tumor growth in vivo by a Wnt pathway inhibitor in combination with a taxane using a staggered dosing schedule. OMP-LU77 lung tumor cells were injected subcutaneously into NOD/SCID mice. […] Vantictumab was administered at 25 mg/kg and paclitaxel at 15 mg/kg. Agents were administered every other week and administered intraperitoneally. Data is shown as tumor volume (mm^3) over days post treatment.
OMP-LU77 is a patient-derived non-small cell lung (NSCLC) tumor. Single cell suspensions of xenograft OMP-LU77 lung tumor cells (50,000 cells) were injected subcutaneously into NOD/SCID mice. Tumors were allowed to grow 37 days until they had reached an average volume of approximately 200 mm^3. Tumor-bearing mice were randomized into 4 groups (n=8-9 per group). […] Antibodies were dosed at 25 mg/kg, administered every other week. Paclitaxel was dosed at 15 mg/kg, also every other week. Tumor growth was monitored and tumor volumes were measured on the indicated days post-treatment. Data are expressed as mean±SEM.

B1: OMP-18R5: anti-FZD antibody, IgG2, also known as vantictumab; heavy chain SEQ ID NO:3, light chain SEQ ID NO:4 (antibody)
heavy: EVQLVESGGGLVQPGGSLRLSCAASGFTFSHYTLSWVRQAPGKGLEWVSVISGDGSYTYYADSVKGRFTISSDNSKNTLYLQMNSLRAEDTAVYYCARNFIKYVFANWGQGTLVTVSSASTKGPSVFPLAPCSRSTSESTAALGCLVKDYFPEPVTVSWNSGALTSGVHTFPAVLQSSGLYSLSSVVTVPSSNFGTQTYTCNVDHKPSNTKVDKTVERKCCVECPPCPAPPVAGPSVFLFPPKPKDTLMISRTPEVTCVVVDVSHEDPEVQFNWYVDGVEVHNAKTKPREEQFNSTFRVVSVLTVVHQDWLNGKEYKCKVSNKGLPAPIEKTISKTKGQPREPQVYTLPPSREEMTKNQVSLTCLVKGFYPSDIAVEWESNGQPENNYKTTPPMLDSDGSFFLYSKLTVDKSRWQQGNVFSCSVMHEALHNHYTQKSLSLSPGK
light: DIELTQPPSVSVAPGQTARISCSGDNIGSFYVHWYQQKPGQAPVLVIYDKSNRPSGIPERFSGSNSGNTATLTISGTQAEDEADYYCQSYANTLSLVFGGGTKLTVLGQPKAAPSVTLFPPSSEELQANKATLVCLISDFYPGAVTVAWKADSSPVKAGVETTTPSKQSNNKYAASSYLSLTPEQWKSHRSYSCQVTHEGSTVEKTVAPTECS
**Q.** B1 was tested. Which “inhibition of tumor growth (tumor volume)” value did it give?
**A.** significantly better at inhibiting tumor growth of the OMP-LU77 lung tumor cells than any of the other dosing regimens
